Broadly, the Kd is the free concentration of one partner at which half of the binding sites on the other are occupied at equilibrium, for simple one-to-one binding.

The record followed here is patent US20200317776A1 (published 2020).

Assay [1] has as its target T1, human TREM2 Fc fusion (entire TREM2 ECD; only one Fc arm fused to TREM2) (human, UniProt Q9NZC2 19-174).
T1 construct: also called huTREM2-Fc; recombinant hTREM2
T1 sequence: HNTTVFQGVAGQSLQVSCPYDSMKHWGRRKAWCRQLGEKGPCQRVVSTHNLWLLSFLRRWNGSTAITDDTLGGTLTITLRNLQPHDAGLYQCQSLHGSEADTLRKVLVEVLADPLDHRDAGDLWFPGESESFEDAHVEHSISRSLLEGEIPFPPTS
Kind of assay: BLI, Fab, monovalent. As for the experimental part: Briefly, IgG's were loaded on-line onto AHQ sensors. Sensors were equilibrated off-line in assay buffer for 30 minutes and then monitored on-line for 60 seconds for baseline establishment. For avid binding measurement, sensors with loaded IgGs were exposed to 100 nM antigen (human TREM2 Fc fusion using the entire TREM2 ECD; only one Fc arm was fused to TREM2) for 3 minutes, afterwards they were transferred to assay buffer for 3 minutes for off-rate measurement. Monovalent binding measurements were obtained by loading human TREM2 Fe fusion antigens to AHQ sensor and followed by exposure to 100 nM TREM2 antibody Fab. Kinetics data were fit using a 1:1 binding model in the data analysis software provided by ForteBio. Assay was run at room temperature (25° C.).
On the technique in general: In BLI a coated tip is dipped into the sample, and binding shifts an interference pattern.

Assay [2] deals with T2, cynomolgus monkey TREM2 Fc fusion (entire TREM2 ECD; only one Fc arm fused to TREM2) (cynomolgus monkey, UniProt Q9NZC2 19-174 (human entry)).
T2 construct: also called cyno TREM2-Fc
T2 chain: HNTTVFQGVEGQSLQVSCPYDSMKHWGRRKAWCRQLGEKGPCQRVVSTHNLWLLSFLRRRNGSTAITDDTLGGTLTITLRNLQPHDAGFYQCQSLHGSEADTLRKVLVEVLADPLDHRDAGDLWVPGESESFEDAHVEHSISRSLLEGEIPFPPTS
Kind of assay: BLI, Fab, monovalent.

Assay [3] deals with T1, human TREM2 Fc fusion (entire TREM2 …). Kind of assay: BLI, Fab, monovalent. The source holds these as a separate data set.
The target is the same in assay [4]. Kind of assay: BLI, IgG, avid. The method, boiled down:
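Avid format: AHQ-loaded IgGs exposed to 100 nM human or cyno TREM2-Fc antigen, 3 min association, 3 min dissociation in buffer. Monovalent format: human TREM2-Fc loaded on AHQ sensors, exposed to 100 nM Fab. Kinetics fit to 1:1 model, run at 25° C.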

Assay [5] addresses T3, human TREM2 expressed on cells (human, UniProt Q9NZC2 19-230).
T3 construct: BW5147.G.1.4 cells stably expressing human TREM2 together with Dap12, or endogenous TREM2 of primary human myeloid cells; also called huT2 BW; hTREM2 expressing cell line
T3 sequence: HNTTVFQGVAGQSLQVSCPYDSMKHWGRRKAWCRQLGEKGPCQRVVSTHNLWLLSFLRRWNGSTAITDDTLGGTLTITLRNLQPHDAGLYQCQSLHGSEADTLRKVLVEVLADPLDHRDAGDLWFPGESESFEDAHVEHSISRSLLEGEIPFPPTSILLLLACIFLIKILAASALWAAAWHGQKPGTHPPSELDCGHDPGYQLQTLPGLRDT
Briefly: FACS, human DCs. The method, boiled down:
(§1)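 Cells were BW5147.G.1.4 stably expressing human TREM2 with Dap12, or human monocyte-derived dendritic cells differentiated 6 days with GM-CSF and IL-4. Antibodies bound 1 h on ice in PBS+2% FBS, then PE anti-human secondary 30 min on ice; flow cytometry read-out as mean fluorescence intensity.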
(In flow cytometry, cells or beads pass a laser one at a time.)

Assay [6] concerns the target T3, human TREM2 expressed on cells. Briefly: FACS, hTREM2 BW cells. As for the experimental part: To examine cell binding of anti-TREM2 antibodies, recombinant, human TREM2-expressing BW5147.G.1.4 cells (ATCC® TIB48™) were established by stably expressing either mouse TREM2 or human TREM2 together with Dap12 using viral infection. Cells were harvested by scraping, washed in PBS, counted and plated on 96-well U bottom plates at 1)(10⁵ cells/well. The plates were spun at 1,400 rpm for 3 minutes and primary anti-TREM2 or control antibodies were added in FACS buffer (PBS H2% FBS) and incubated on ice for one hour. Cells were subsequently centrifuged as before and washed thrice with FACS buffer. Cells were then incubated with anti-human PE conjugated secondary antibody (BD Biosciences) in FACS buffer for 30 minutes on ice. Cells were again washed thrice with FACS buffer and analyzed on a BD FACS Canto. Binding was measured as mean fluorescence intensity in the APC channel.

The target in assay [7] is T4, human TREM2/DAP12 fusion protein (human, UniProt O43914 41-113, limits assumed). Kind of assay: cell-based or functional assay.
In assay [8] the target is T3, human TREM2 expressed on cells. Briefly: cell-based or functional assay.
Assay [9] deals with T4, human TREM2/DAP12 fusion protein. Briefly: cell-based or functional assay. This is another data set of the same source.
Assay [10] shares this target. Kind of assay: cell-based or functional assay. This is another data set of the same source.
In assay [11] the target is T3, human TREM2 expressed on cells. Briefly: FACS, hTREM2 BW cells. The method, boiled down:
as §1
The source holds these as a separate data set.

Assay [12] has the same target. Briefly: cell-based or functional assay. This is another data set of the same source.
The target is the same in assay [13]. Briefly: FACS, hTREM2 BW cells. This is another data set of the same source.

Like-named read-outs stand apart in the source and are kept apart here.

T4 sequence (O43914 other isoform, or with tags, fused parts or gaps limits assumed): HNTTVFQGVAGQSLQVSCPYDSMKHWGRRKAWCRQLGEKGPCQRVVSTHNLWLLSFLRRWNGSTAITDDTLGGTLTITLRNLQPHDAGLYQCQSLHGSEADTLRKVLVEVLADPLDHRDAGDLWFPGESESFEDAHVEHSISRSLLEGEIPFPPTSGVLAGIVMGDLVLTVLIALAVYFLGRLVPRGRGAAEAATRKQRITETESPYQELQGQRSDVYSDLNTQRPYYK

B1: AL2p-h50 (antibody, human IgG1, V domains shown)
VH: QVQLVQSGAEVKKPGSSVKVSCKASGYAFSSSWMNWVRQAPGQGLEWMGRIYPGDGDTNYAQKFQGRVTITADESTSTAYMELSSLRSEDTAVYYCARLLRNQPGESYAMDYWGQGTLVTVSS
VL: DVVMTQTPLSLSVTPGQPASISCRSSQSLVHSNGYTYLHWYLQKPGQSPQLLIYKVSNRFSGVPDRFSGSGSGTDFTLKISRVEAEDVGVYYCSQSTRVPYTFGQGTKLEIK
notes: humanized, human IgG1; Fab and IgG formats under one id
For B1, the dissociation constant Kd in assay [1] is 180 nM; in assay [2], 7700 nM; in [3], 112 nM; in assay [4], 1.19 nM; in assay [11], 3.7 nM. For the same molecule, the MFI in assay [5] stood at 26 MFI. The “cell binding (FOB)” value in assay [6] came out at 78 FOB. For the same molecule, the “Soluble luciferase activation at 10 µg/ml Fold over control” value in [7] came to 6.36 fold over control. In addition, the “Survival huDCs plate bound IgG, AUC” value in assay [8] is 337000 AUC. Besides, the “Luciferase activation plate bound 33 nM IgG, FOC” value in assay [9] was determined as 6.83 FOC. In [9], the “Luciferase activation soluble 10 nM IgG, FOC” value worked out at 1.26 FOC. Besides, the “luciferase activation, soluble IgG, EC50” value in assay [10] was 63.1 nM.

B2: AL2p-h77 (antibody, human IgG1, V domains shown)
VH: QVQLVQSGAEVKKPGASVKVSCKASGYAFSSSWMNWVRQAPGQRLEWIGRIYPGDGDTNYAQKFQGRVTITADTSASTAYMELSSLRSEDTAVYYCARLLRNQPGESYAMDYWGQGTLVTVSS
VL: DVVMTQSPDSLAVSLGERATINCRSSQSLVHSNGYTYLHWYQQKPGQSPKLLIYKVSNRFSGVPDRFSGSGSGTDFTLTISSLQAEDVAVYYCSQSTRVPYTFGGGTKVEIK
notes: humanized, human IgG1; Fab and IgG formats under one id; also called A2p-h77
Regarding B2, the dissociation constant (Kd) in assay [1] was 93.9 nM; in assay [2] it was 184 nM; in [3] it was 102 nM; in assay [4], 1.17 nM; in [11], 3.9 nM. Moreover, in assay [5], the MFI amounted to 162 MFI. The “cell binding (FOB)” value in assay [6] was 83 FOB. For the same molecule, the “Soluble luciferase activation at 10 µg/ml Fold over control” value in [7] came to 7.14 fold over control. In addition, in assay [8], the “Survival huDCs plate bound IgG, AUC” value was found to be 381000 AUC. In addition, the “Luciferase activation plate bound 33 nM IgG, FOC” value in assay [9] was found to be 6.77 FOC. For the same molecule, in assay [9], the “Luciferase activation soluble 10 nM IgG, FOC” value worked out at 1.47 FOC. The “luciferase activation, soluble IgG, EC50” value in assay [10] came out at 20.1 nM.

B3: AL2p-60 (antibody, IgG1, V domains shown)
VH: QVQLVQSGAEVKKPGSSVKVSCKASGYAFSSQWMNWVRQAPGQGLEWMGRIYPGEGDTNYARKFQGRVTITADESTSTAYMELSSLRSEDTAVYYCARLLRNQPGESYAMDYWGQGTLVTVSS
VL: GVVMTQTPLSLSVTPGQPASISCRSSQSLVHSNQYTYLHWYLQKPGQSPQLLIYKVSNRRSGVPDRFSGSGSGTDFTLKISRVEAEDVGVYYCSQSTRVPYTFGQGTKLEIK
For the molecule B3, in assay [12], the “EC50 viability, dendritic cells D558” value was 0.152 nM; the “EC50 viability, dendritic cells D559” value stood at 0.244 nM; the “EC50 viability, dendritic cells D560” value was determined as 0.178 nM; the “EC50 viability, macrophages D559” value is 0.194 nM. Further, the “EC50 viability, macrophages D560” value in [12] is 0.154 nM. For the same molecule, the Kd in [13] came to 1.12 nM.

B4: AL2p-59 (antibody, V domains shown)
VH: QVQLVQSGAEVKKPGSSVKVSCKASGYAFSSHWMNWVRQAPGQGLEWMGRIYPGEGQTNYAQKRQGRVTITADESTSTAYMELSSLRSEDTAVYYCARLLRNQPGESYAMDYWGQGTLVTVSS
VL: GVVMTQTPLSLSVTPGQPASISCRTSQSLVHSNQYTYLHWYLQKPGQSPQLLIYKVSNRVSGVPDRFSGSGSGTDFTLKISRVEAEDVGVYYCSQSTRVPYTFGQGTKLEIK
notes: Fab and IgG formats under one id
Consider B4, for which the results for the Kd in [2], in [3] and in assay [13] were 3.95 nM, 3.85 nM and 1.24 nM, respectively. The “luciferase activation, soluble IgG, EC50” value in assay [10] amounted to 11.2 nM.

B5: AL2p-2 (antibody, V domains shown)
VH: QVQLVQSGAEVKKPGSSVKVSCKASGYAFSSSWMNWVRQAPGQGLEWMGRIYPGGGDTNYAQKFQGRVTITADESTSTAYMELSSLRSEDTAVYYCARLLRNQPGESYAMDYWGQGTLVTVSS
VL: DVVMTQTPLSLSVTPGQPASISCRSSQSLVHSNGYTYLHWYLQKPGQSPQLLIYKVSNRFSGVPDRFSGSGSGTDFTLKISRVEAEDVGVYYCSQSTRVPYTFGQGTKLEIK
notes: AL2p-h50 variant; Fab and IgG formats under one id
On to B5, for which the Kd was 1400 nM in assay [2], 63.3 nM in assay [3], 0.837 nM in assay [4] and 2.2 nM in assay [11]. Further, in assay [8], the “Survival huDCs plate bound IgG, AUC” value is 461000 AUC. Also, the “Luciferase activation plate bound 33 nM IgG, FOC” value in assay [9] came out at 7.36 FOC. In assay [9], the “Luciferase activation soluble 10 nM IgG, FOC” value was determined as 1.7 FOC. In addition, in [10], the “luciferase activation, soluble IgG, EC50” value is 23 nM.
